Experimental data taken from publication PMC3275592, “Structural and Functional Insights into Endoglin Ligand Recognition and Binding” (PLoS ONE, 2012).
One block for each molecule: values may come before it.

T1: HG-EndoEC, full length extracellular region of human endoglin (residues 22-587), high glycosylation (human, UniProt P17813 22-587, mature, branched sugars (high glycosylation); putative Asn glycosylation sites Asn88, Asn102, Asn121, Asn134 and Asn307 (Asn306 in Figure 1))
T1 construct: endoglin, human, extracellular region, residues 22-587; EndoEC dimerized to some extent through a disulfide bond; also called endoglin ectodomain; source: HEK293 FreeStyle (HEK293F), transfected, secreted, purified (HisTrap, gel filtration)
T1 sequence (looked up): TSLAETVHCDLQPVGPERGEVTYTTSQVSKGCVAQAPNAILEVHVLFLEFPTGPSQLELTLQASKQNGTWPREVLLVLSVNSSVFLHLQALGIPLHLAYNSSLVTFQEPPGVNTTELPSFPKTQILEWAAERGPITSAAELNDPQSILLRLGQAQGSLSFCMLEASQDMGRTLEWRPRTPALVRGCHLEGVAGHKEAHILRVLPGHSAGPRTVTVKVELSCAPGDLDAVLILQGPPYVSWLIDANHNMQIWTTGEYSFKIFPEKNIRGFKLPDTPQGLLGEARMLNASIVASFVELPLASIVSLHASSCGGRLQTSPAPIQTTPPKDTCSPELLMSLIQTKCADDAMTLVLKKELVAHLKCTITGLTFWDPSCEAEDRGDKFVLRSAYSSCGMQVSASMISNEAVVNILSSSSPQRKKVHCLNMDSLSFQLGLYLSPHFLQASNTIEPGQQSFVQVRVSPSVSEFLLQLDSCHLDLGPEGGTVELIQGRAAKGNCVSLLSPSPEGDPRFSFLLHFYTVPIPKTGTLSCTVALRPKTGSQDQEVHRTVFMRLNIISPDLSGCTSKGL

T2: Endo338, endoglin orphan domain construct (residues 22-337) (human, UniProt P17813 22-337, Man5NAG2 glycans (5 modelled at their attachment sites))
T2 construct: also called Endoglin338; OD; source: HEK293S GnTI- suspension cells, transfected, secreted, purified (HisTrap, gel filtration); not shown: 6xHis, C-terminal, kept
T2 sequence (looked up): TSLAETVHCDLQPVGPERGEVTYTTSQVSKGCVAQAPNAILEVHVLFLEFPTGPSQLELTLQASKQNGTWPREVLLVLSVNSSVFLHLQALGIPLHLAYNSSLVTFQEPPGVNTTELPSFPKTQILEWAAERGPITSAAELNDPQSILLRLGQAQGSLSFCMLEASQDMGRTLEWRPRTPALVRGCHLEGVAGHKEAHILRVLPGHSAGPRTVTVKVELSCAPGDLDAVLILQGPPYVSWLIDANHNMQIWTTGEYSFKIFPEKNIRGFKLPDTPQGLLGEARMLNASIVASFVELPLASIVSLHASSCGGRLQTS

B1: Bone morphogenetic protein 9 (BMP-9) (ligand, human, UniProt Q9UK05 320-429, looked up)
chain: SAGAGSHCQKTSLRVNFEDIGWDSWIIAPKEYEAYECKGGCFFPLADDVTPTKHAIVQTLVHLKFPTKVGKACCVPTKLSPISVLYKDDMGVPTLKYHYEGMSVAECGCR
notes: BMP-9, human, carrier-free protein from R&D Systems; Immobilised on a CM5 chip by amine coupling; also called Bone Morphogenetic Protein (BMP)-9; source: bought: R&D Systems (carrier free)
B2: LG-EndoEC, full length extracellular region of human endoglin (residues 22-587), low glycosylation (domain or fragment, UniProt P17813 22-587, looked up)
chain: T1 sequence (looked up)
modifications: short, well defined sugars of the type Man5NAG2 (low glycosylation); putative Asn glycosylation sites Asn88, Asn102, Asn121, Asn134 and Asn307 (Asn306 in Figure 1)
notes: endoglin, human, extracellular region, residues 22-587; Dimeric and monomeric species seen on gels; also called endoglin ectodomain; source: HEK293S GnTI- suspension cells, transfected, secreted, purified (HisTrap, gel filtration); not shown: 6xHis, C-terminal, kept

Key:
[1] = target: Endo362, endoglin orphan domain construct with the linker region (residues 22-361 or 22-362) (human) (UniProt P17813); test: SDS-PAGE under reducing and non-reducing conditions with anti-His6 western blot; 10% SDS gel, 0.5 µg protein; with or without 10 mM DTT (1 h, 65°C); boiled at 95°C for 5 min; disulfide-linked dimer
[2] = target: Bone morphogenetic protein 9 (BMP-9) (human) (UniProt Q9UK05); test: SPR; Biacore T100; BMP-9 immobilised on CM5 chip by amine coupling; analyte alone at six concentrations 12.5-400 nM; 25°C; 10 mM HEPES pH 7.4, 150 mM NaCl, 3 mM EDTA, 0.05% P20; 1:1 binding model, global fit; apparent KD; triplicates
[3] = target: T1, HG-EndoEC, full length extracellular …; test: SPR; Biacore T100; endoglin coinjected with a constant saturating concentration of HG-ALK1EC over immobilised BMP-9; 25°C; 10 mM HEPES pH 7.4, 150 mM NaCl, 3 mM EDTA, 0.05% P20; 1:1 binding model; settings: both partners purified
[4] = target: B2; test: as above; settings: both partners purified
[5] = target: T1, HG-EndoEC, full length extracellular …; test: SPR; Biacore T100; BMP-9 immobilised on CM5 chip by amine coupling; analyte alone at six concentrations 12.5-400 nM; 25°C; 10 mM HEPES pH 7.4, 150 mM NaCl, 3 mM EDTA, 0.05% P20; 1:1 binding model, global fit; apparent KD; triplicates; settings: both partners purified
[6] = target: B2; test: as above; settings: both partners purified
[7] = target: T2, Endo338, endoglin orphan domain …; test: as above; settings: both partners purified
[8] = target: the molecule itself; test: SDS-PAGE under reducing and non-reducing conditions with anti-His6 western blot; 10% SDS gel, 0.5 µg protein; with or without 10 mM DTT (1 h, 65°C); boiled at 95°C for 5 min; disulfide-linked dimer

stoichiometry N [1]: 2
Kd [2]: 8.96 nM
koff [2]: 0.00108 s⁻¹
kon [2]: 120000 M⁻¹ s⁻¹
Molecule: Endo362, endoglin orphan domain construct with the linker region (residues 22-361 or 22-362) (from UniProt P17813 22-361) (domain or fragment)

Molecule: B1
Kd [3]: 14.7 nM
koff [3]: 0.00153 s⁻¹
kon [3]: 274000 M⁻¹ s⁻¹
Kd [4]: 3.27 nM
koff [4]: 0.000925 s⁻¹
kon [4]: 283000 M⁻¹ s⁻¹
Kd [5]: 9.94 nM
koff [5]: 0.00207 s⁻¹
kon [5]: 208000 M⁻¹ s⁻¹
Kd [6]: 2.01 nM
koff [6]: 0.000891 s⁻¹
kon [6]: 442000 M⁻¹ s⁻¹
Kd [7]: 276 nM
koff [7]: 0.254 s⁻¹
kon [7]: 914000 M⁻¹ s⁻¹

Molecule: B2
stoichiometry N [8]: 2
